Patent US20230194519A1 (CCOA THERAPEUTICS, published 2023)
Each block holds one molecule with its values, some of them ahead of it.

Legend:
[1] = molecular target: Inactive αIIbβ3 (recombinant human ectodomain αIIbβ3 on DETA beads before activation) (human) (UniProt P08514); experiment: flow cytometry, 50 nM FITC-PAC-1 on inactive αIIbβ3 beads, n ≥ 3
[2] = molecular target: Activated αIIbβ3 (recombinant human ectodomain αIIbβ3 on DETA beads after incubation in activation buffer with CaCl2, MnCl2 and MgCl2) (human) (UniProt P08514); experiment: flow cytometry, 50 nM FITC-PAC-1 on activated αIIbβ3 beads, n ≥ 3
[3] = molecular target: T1, recombinant human ectodomain αIIbβ3 immobilized on a surface (activation state not stated at the place of the … (human, UniProt P08514 32-993; P05106 27-718); experiment: flow cytometry sandwich assay, fibrinogen dose response on αIIbβ3 coupled beads, FITC labelled detection antibody, no blocking step
T1 construct: also called αIIbβ3 coupled beads; αIIbβ3 coated beads
Text: To evaluate the analytical potential of these αIIbβ3 coupled molecular probes, a flow cytometry sandwich assay was developed. […] The same primary antibody was used for both assays, however, the detection antibody for ELISA was HRP labelled and for flow cytometry was FITC labelled. The fibrinogen does response curves are depicted in the inserts of each of FIGS. 5A and 5B. […] The flow cytometry based assay produced a significant increase in performance compared to ELISA, even though a blocking step and a signal amplification-based detection strategy were employed in ELISA. It was postulated that the significant increase in performance observed is due to the SAM and the immobilization strategy which promotes the high-affinity ligand binding conformation of the integrin.

[4] = molecular target: T1, recombinant human ectodomain αIIbβ3 …; experiment: sandwich ELISA, fibrinogen dose response on plate-immobilized αIIbβ3, HRP labelled detection antibody
Procedure: Fibrinogen ELISA Assay. To ensure similar immobilization levels of recombinant human ectodomain αIIbβ3 between the ELISA plate and integrin coupled magnetic beads, the wells of a 96-well micro plate (Nunc MaxiSorp) were incubated with the same αIIbβ3 concentration per surface area as during the preparation of the magnetic beads, 6.6×10⁴ μg·mL⁻¹·cm⁻². Each well was coated with αIIbβ3 or control proteins (BSA and β3−/− platelet lysate) by incubation of 6 μg/μL protein in binding buffer (TRIS buffered saline with 0.05% TWEEN-20 and 1 mM each of MgCl₂, MnCl₂ and CaCl₂) at 4° C. overnight. Incubation of 3% skim milk (ED Millipore) and 2% TWEEN-20 for 1 hour at 37° C. was used for blocking. The concentration of αIIbβ3 per surface area of bead used when coating SAM coated beads is 6.6×10⁴ μg·mL⁻¹·cm⁻², therefore the wells of 96 well plates used were coated with the same density EDC/NHS quenching achieved by increase pH to 8.6. Bead concentration for synthesis: 6×10⁹ beads·mL⁻¹; Integrin-bead reaction concentration=250 μg·mL⁻¹; Integrin Used=6.6×10⁴ μg·mL⁻¹·cm⁻²; Well Surface Area (50 μL)=0.93 cm²; Concentration/wee for ELISA=6×10⁴ μg·mL⁻¹ (6 μL/well in 50 μL total volume); Stock [αIIbβ3]=5×10⁵ μg·mL⁻¹.
To evaluate the analytical potential of these αIIbβ3 coupled molecular probes, a flow cytometry sandwich assay was developed. […]

T1 sequence (P08514 other isoform, or with tags, fused parts or gaps limits assumed, chain 1 of 2): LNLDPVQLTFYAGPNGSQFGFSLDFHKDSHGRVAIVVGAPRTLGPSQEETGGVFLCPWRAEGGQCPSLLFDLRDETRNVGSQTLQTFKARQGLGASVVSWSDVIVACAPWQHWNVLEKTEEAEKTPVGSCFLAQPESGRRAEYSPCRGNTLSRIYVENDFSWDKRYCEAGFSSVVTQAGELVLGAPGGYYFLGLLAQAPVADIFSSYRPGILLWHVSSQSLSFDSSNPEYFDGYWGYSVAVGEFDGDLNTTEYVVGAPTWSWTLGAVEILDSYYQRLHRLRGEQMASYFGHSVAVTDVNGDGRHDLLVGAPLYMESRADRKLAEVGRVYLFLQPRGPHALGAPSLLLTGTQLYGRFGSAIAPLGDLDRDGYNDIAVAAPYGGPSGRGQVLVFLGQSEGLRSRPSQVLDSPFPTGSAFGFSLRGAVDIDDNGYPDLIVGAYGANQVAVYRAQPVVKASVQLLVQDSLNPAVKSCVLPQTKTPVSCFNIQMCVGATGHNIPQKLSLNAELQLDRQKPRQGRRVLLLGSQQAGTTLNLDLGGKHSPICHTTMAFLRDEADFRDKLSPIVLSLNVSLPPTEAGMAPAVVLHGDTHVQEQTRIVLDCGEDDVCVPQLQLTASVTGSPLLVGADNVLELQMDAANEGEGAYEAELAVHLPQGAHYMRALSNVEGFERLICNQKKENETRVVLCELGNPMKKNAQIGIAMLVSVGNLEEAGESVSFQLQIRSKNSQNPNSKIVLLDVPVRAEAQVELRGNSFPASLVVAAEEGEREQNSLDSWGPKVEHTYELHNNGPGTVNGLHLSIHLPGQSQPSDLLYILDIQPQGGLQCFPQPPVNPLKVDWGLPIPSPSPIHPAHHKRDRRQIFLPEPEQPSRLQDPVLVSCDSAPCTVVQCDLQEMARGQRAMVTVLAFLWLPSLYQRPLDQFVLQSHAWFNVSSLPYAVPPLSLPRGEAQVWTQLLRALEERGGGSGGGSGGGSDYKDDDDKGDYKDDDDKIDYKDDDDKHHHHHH
T1 sequence (P05106 other isoform, or with tags, fused parts or gaps limits assumed, chain 2 of 2): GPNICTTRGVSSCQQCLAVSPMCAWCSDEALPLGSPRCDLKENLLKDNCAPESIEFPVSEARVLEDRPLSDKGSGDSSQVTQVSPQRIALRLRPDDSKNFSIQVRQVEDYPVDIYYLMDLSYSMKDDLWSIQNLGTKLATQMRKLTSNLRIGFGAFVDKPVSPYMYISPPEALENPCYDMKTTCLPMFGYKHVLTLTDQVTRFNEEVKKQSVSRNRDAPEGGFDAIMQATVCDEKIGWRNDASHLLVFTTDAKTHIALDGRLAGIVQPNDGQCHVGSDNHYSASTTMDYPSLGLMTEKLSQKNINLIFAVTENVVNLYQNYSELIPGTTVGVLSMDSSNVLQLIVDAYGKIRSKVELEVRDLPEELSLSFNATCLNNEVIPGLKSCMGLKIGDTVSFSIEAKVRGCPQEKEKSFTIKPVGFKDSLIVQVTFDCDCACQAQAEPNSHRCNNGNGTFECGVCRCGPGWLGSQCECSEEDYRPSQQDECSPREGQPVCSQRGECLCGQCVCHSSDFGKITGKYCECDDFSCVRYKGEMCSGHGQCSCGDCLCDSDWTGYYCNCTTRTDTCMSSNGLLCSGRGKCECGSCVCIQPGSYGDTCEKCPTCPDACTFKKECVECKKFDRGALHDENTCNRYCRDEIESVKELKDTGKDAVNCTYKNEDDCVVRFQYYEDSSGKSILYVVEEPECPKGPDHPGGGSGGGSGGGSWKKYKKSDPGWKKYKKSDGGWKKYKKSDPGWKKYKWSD
Chain of Activated αIIbβ3 (recombinant human ectodomain αIIbβ3 on DETA beads after incubation in activation buffer with CaCl2, MnCl2 and MgCl2) (human) (P08514 other isoform, or with tags, fused parts or gaps limits assumed, chain 1 of 2): as the sequence (P08514 other isoform, or with tags, fused parts or gaps limits assumed, chain 1 of 2) above
Chain of Activated αIIbβ3 (recombinant human ectodomain αIIbβ3 on DETA beads after incubation in activation buffer with CaCl2, MnCl2 and MgCl2) (human) (chain, as listed by the source limits assumed, chain 2 of 2): as the sequence (P05106 other isoform, or with tags, fused parts or gaps limits assumed, chain 2 of 2) above
Chain of Inactive αIIbβ3 (recombinant human ectodomain αIIbβ3 on DETA beads before activation) (human) (P08514 other isoform, or with tags, fused parts or gaps limits assumed, chain 1 of 2): as the sequence (P08514 other isoform, or with tags, fused parts or gaps limits assumed, chain 1 of 2) above
Chain of Inactive αIIbβ3 (recombinant human ectodomain αIIbβ3 on DETA beads before activation) (human) (chain, as listed by the source limits assumed, chain 2 of 2): as the sequence (P05106 other isoform, or with tags, fused parts or gaps limits assumed, chain 2 of 2) above

Mean Fluorescence Intensity (MFI) [1]: 212 MFI | Mean Fluorescence Intensity (MFI) [2]: 942 MFI
Molecule: PAC-1 (antibody)

Kd [3]: 210 nM | Kd [4]: 2200 nM
B1: fibrinogen (ligand)
chain 1: ADSGEGDFLAEGGGVRGPRVVERHQSACKDSDWPFCSDEDWNYKCPSGCRMKGLIDEVNQDFTNRINKLKNSLFEYQKNNKDSHSLTTNIMEILRGDFSSANNRDNTYNRVSEDLRSRIEVLKRKVIEKVQHIQLLQKNVRAQLVDMKRLEVDIDIKIRSCRGSCSRALAREVDLKDYEDQQKQLEQVIAKDLLPSRDRQHLPLIKMKPVPDLVPGNFKSQLQKVPPEWKALTDMPQMRMELERPGGNEITRGGSTSYGTGSETESPRNPSSAGSWNSGSSGPGSTGNRNPGSSGTGGTATWKPGSSGPGSTGSWNSGSSGTGSTGNQNPGSPRPGSTGTWNPGSSERGSAGHWTSESSVSGSTGQWHSESGSFRPDSPGSGNARPNNPDWGTFEEVSGNVSPGTRREYHTEKLVTSKGDKELRTGKEKVTSGSTTTTRRSCSKTVTKTVIGPDGHKEVTKEVVTSEDGSDCPEAMDLGTLSGIGTLDGFRHRHPDEAAFFDTASTGKTFPGFFSPMLGEFVSETESRGSESGIFTNTKESSSHHPGIAEFPSRGKSSSYSKQFTSSTSYNRGDSTFESKSYKMADEAGSEADHEGTHSTKRGHAKSRPV
chain 2: QGVNDNEEGFFSARGHRPLDKKREEAPSLRPAPPPISGGGYRARPAKAAATQKKVERKAPDAGGCLHADPDLGVLCPTGCQLQEALLQQERPIRNSVDELNNNVEAVSQTSSSSFQYMYLLKDLWQKRQKQVKDNENVVNEYSSELEKHQLYIDETVNSNIPTNLRVLRSILENLRSKIQKLESDVSAQMEYCRTPCTVSCNIPVVSGKECEEIIRKGGETSEMYLIQPDSSVKPYRVYCDMNTENGGWTVIQNRQDGSVDFGRKWDPYKQGFGNVATNTDGKNYCGLPGEYWLGNDKISQLTRMGPTELLIEMEDWKGDKVKAHYGGFTVQNEANKYQISVNKYRGTAGNALMDGASQLMGENRTMTIHNGMFFSTYDRDNDGWLTSDPRKQCSKEDGGGWWYNRCHAANPNGRYYWGGQYTWDMAKHGTDDGVVWMNWKGSWYSMRKMSMKIRPFFPQQ
chain 3: YVATRDNCCILDERFGSYCPTTCGIADFLSTYQTKVDKDLQSLEDILHQVENKTSEVKQLIKAIQLTYNPDESSKPNMIDAATLKSRKMLEEIMKYEASILTHDSSIRYLQEIYNSNNQKIVNLKEKVAQLEAQCQEPCKDTVQIHDITGKDCQDIANKGAKQSGLYFIKPLKANQQFLVYCEIDGSGNGWTVFQKRLDGSVDFKKNWIQYKEGFGHLSPTGTTEFWLGNEKIHLISTQSAIPYALRVELEDWNGRTSTADYAMFKVGPEADKYRLTYAYFAGGDAGDAFDGFDFGDDPSDKFFTSHNGMQFSTWDNDNDKFEGNCAEQDGSGWWMNKCHAGHLNGVYYQGGTYSKASTPNGYDNGIIWATWKTRWYSMKKTTMKIIPFNRLTIGEGQQHHLGGAKQAGDV
modifications: Alexa488 label in the Table 2 assay
notes: Native ligand of αIIbβ3; also called Alexa488 labelled fibrinogen; Alexa 488 - Fibrinogen
